Results taken from patent US20250297030A1 (SHANDONG SIMCERE BIOPHARMACEUTICAL, published 2025).
Like-named read-outs stand apart in the source and are kept apart here.

Columns and labels:
[1] = molecular target: T1, human MUC17 on NUGC4 endogenous tumor cells (human, UniProt Q685J3 26-4493); experiment: FACS on NUGC4 cells, MFI
Procedure: (§1) Then a complete medium was added to stop the digestion, and the cells were blown into a single cell suspension. After counting, the cells were centrifuged, and the cell pellet was resuspended to 2×10⁶ cells/mL in an FACS buffer (PBS+2% fetal bovine serum), and added to a 96-well FACS reaction plate at 100 µL/well. The plate was centrifuged, and the supernatant was discarded. An antibody sample to be tested (diluted in a 3-fold gradient from a starting concentration of 100 nM) was added at 50 µL/well and uniformly mixed with the cells, and the mixture was incubated at 4° C. for 1 h. […] The results were tested and analyzed by FACS (FACS Canto™, purchased from BD) after the plate was centrifuged and washed 3 times with a PBS buffer and resuspended with 100 μL of PBS. Data analysis was performed by software (FlowJo) to obtain the mean fluorescence intensity (MFI) of the cells. Then, analysis was performed by software (GraphPad Prism8), data were fitted, and EC50 values were calculated. As shown in FIGS. 3A-3B, the recombinant antibodies Lab315-huFc, Lab316-huFc, Lab320-huFc, Lab331-huFc, and Lab332-huFc are all capable of binding specifically to NUGC-4 cells.

[2] = molecular target: T1, human MUC17 on NUGC4 endogenous tumor …; experiment: FACS on NUGC4 cells, MFI; remark: listed apart in the source
Procedure: as §1

[3] = molecular target: T1, human MUC17 on NUGC4 endogenous tumor …; experiment: FACS on NUGC4 cells, MFI; remark: listed apart in the source
Procedure: as §1
(§2) The preparation of the assay cells and the antibodies to be tested and the assay were performed with reference to Example 3.4. […]

[4] = molecular target: T1, human MUC17 on NUGC4 endogenous tumor …; experiment: FACS on NUGC4 cells, MFI; remark: listed apart in the source
Procedure: as §1, §2

[5] = molecular target: T1, human MUC17 on NUGC4 endogenous tumor …; experiment: FACS on NUGC4 cells, MFI; remark: listed apart in the source
Procedure: as §1, §2

[6] = molecular target: T1, human MUC17 on NUGC4 endogenous tumor …; experiment: FACS on NUGC4 cells, MFI; remark: listed apart in the source
Procedure: as §1, §2

[7] = molecular target: T2, Human MUC17 ECD4131-his (His-tagged human MUC17 protein extracellular domain fusion protein) (human, UniProt Q685J3 4131-4393); experiment: SPR (Biacore 8K), antibody captured on Protein A
T2 construct: a truncation of the extracellular domain; also called human MUC17-his protein; human MUC17-His
Procedure: The strength of antibody-antigen binding was assayed with a BIAcore 8K instrument using an Protein A capture method. First, Protein A was immobilized onto a CM4 chip (purchased from GE, BR-1005-34) using an amino coupling method. According to the instruction of the Amine Coupling Kit (purchased from GE, BR100633), NHS and EDC were mixed with HBS-EP+ pH 7.4 as a mobile phase to activate the chip for about 600 s; the Protein A was diluted to 50 µg/mL with 10 mM sodium acetate (pH 4.5) and injected for 600 s, and finally, the remaining activated sites were blocked with ethanolamine. Then, the affinity of the antibody for the antigen was assayed using a multi-cycle kinetic method; in each cycle, first, the antibody to be tested was captured using the Protein A chip, and then a single concentration of antigen protein was injected. The association and dissociation processes of the antibody with the antigen protein were recorded, and finally, the chip was regenerated using Glycine pH 1.5, wherein the mobile phase was HBS-EP+ (10 mM HEPES, 150 mM NaCl, 3 mM EDTA, 0.05% surfactant P20), the flow rate was […], the regeneration time was 30 s, and the assay temperature was 25° C. Finally, according to a 1:1 binding model, the data were analyzed, and the antibody-antigen binding kinetics parameters, including the association rate constant Ka, the dissociation rate constant Kd, the equilibrium dissociation constant KD, and the maximum binding signal Rmax, were fitted. The association rate (Ka), dissociation rate (Kd), and binding affinity (KD) of the recombinant antibodies Lab315-huFc, Lab316-huFc, Lab320-huFc, Lab331-huFc, and Lab332-huFc with the human MUC17 protein are shown in Table 5.

[8] = molecular target: T2, Human MUC17 ECD4131-his (His-tagged …); experiment: ELISA on coated human MUC17 ECD4131-his, OD450
Procedure: (§3) A human MUC17-his protein was diluted with PBS to a final concentration of […] and then added to a 96-well ELISA plate at 50 µL/well. The plate was incubated at 4° C. overnight. The next day, the plate was washed 2 times with PBST, and a blocking buffer [PBS+2% (w/w) BSA] was added for blocking at room temperature for 2 h. The blocking buffer was discarded, and the recombinant antibody and positive and negative control antibody with a starting concentration of 100 nM serially diluted by 3 folds were added at 50 μL/well. After incubation at 37° C. for 1 h, the plate was washed 3 times with PBST. A horseradish peroxidase (HRP)-labeled secondary antibody (purchased from Merck, Cat. No. AP113P) was added for incubation at 37° C. for 1 h, and the plate was washed 5 times with PBST. A TMB substrate was added at 50 μL/well for incubation at room temperature for 10 min, and then a stop solution (1.0 M HCl) was added at 50 µL/well. The OD₄₅₀ nm values were read by an ELISA plate reader (Multimode Plate Reader, EnSight, purchased from Perkin Elmer).

[9] = molecular target: T2, Human MUC17 ECD4131-his (His-tagged …); experiment: ELISA on coated human MUC17 ECD4131-his, OD450; remark: listed apart in the source
Procedure: as §3

[10] = molecular target: T3, monkey MUC17 fragment on FlpinCHO-Cyno(3597-3964)-D2 cells (monkey); experiment: FACS on FlpinCHO-Cyno(3597-3964)-D2 cells, MFI
T3 chain: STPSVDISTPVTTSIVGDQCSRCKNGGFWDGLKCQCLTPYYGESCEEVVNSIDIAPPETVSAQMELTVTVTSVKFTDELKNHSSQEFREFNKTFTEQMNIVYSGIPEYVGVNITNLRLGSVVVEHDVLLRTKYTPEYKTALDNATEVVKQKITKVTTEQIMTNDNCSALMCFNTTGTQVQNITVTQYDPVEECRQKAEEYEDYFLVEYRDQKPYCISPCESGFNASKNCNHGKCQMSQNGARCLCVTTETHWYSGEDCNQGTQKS

[11] = molecular target: T2, Human MUC17 ECD4131-his (His-tagged …); experiment: ELISA on coated human MUC17 ECD4131-his, OD450; remark: listed apart in the source
Procedure: as §3

[12] = molecular target: T2, Human MUC17 ECD4131-his (His-tagged …); experiment: ELISA on coated human MUC17 ECD4131-his, OD450; remark: listed apart in the source
[13] = molecular target: T2, Human MUC17 ECD4131-his (His-tagged …); experiment: ELISA on coated human MUC17 ECD4131-his, OD450; remark: listed apart in the source
[14] = molecular target: T2, Human MUC17 ECD4131-his (His-tagged …); experiment: ELISA on coated human MUC17 ECD4131-his, OD450; remark: listed apart in the source
Procedure: as §3

[15] = molecular target: T2, Human MUC17 ECD4131-his (His-tagged …); experiment: ELISA on coated human MUC17 ECD4131-his, OD450; remark: listed apart in the source
Procedure: as §3

[16] = molecular target: T4, Cyno MUC17 ECD3577-his (His-tagged cynomolgus monkey MUC17 protein extracellular domain fusion protein) (cynomolgus monkey); experiment: ELISA on coated monkey MUC17 ECD3577-His, OD450
T4 construct: also called monkey MUC17-his protein; monkey MUC17 ECD3577-His
T4 chain: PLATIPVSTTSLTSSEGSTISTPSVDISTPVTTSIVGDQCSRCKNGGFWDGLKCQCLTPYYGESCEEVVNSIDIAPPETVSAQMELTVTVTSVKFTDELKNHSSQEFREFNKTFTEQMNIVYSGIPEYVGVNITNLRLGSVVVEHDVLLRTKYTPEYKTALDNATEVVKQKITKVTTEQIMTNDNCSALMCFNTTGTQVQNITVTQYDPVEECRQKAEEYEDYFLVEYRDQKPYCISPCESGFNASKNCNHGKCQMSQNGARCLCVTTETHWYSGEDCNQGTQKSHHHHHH
Procedure: as §3
(§4) The monkey MUC17-his protein was subjected to ELISA and data analysis according to the method described in Example 3.2. The recombinant antibodies Lab315-huFc, Lab316-huFc, Lab320-huFc, Lab331-huFc, and Lab332-huFc have a relatively good binding activity with the monkey MUC17-his protein.

[17] = molecular target: T4, Cyno MUC17 ECD3577-his (His-tagged …); experiment: ELISA on coated monkey MUC17 ECD3577-His, OD450
Procedure: as §3, §4

[18] = molecular target: T4, Cyno MUC17 ECD3577-his (His-tagged …); experiment: ELISA on coated monkey MUC17 ECD3577-His, OD450
Procedure: (§5) To assay the binding activity of the humanized antibodies with the monkey MUC17-his protein, the monkey MUC17-his protein was diluted with PBS to a final concentration of […] and subjected to ELISA assay and data analysis according to the method described in Example 3.3. The humanized antibodies SCR-7724, SCR-7782, SCR-7783, SCR-7784, and SCR-7785 have cross-binding activity with the monkey MUC17 protein, maintaining the binding ability of the recombinant antibody.

[19] = molecular target: T4, Cyno MUC17 ECD3577-his (His-tagged …); experiment: ELISA on coated monkey MUC17 ECD3577-His, OD450
Procedure: as §5

[20] = molecular target: T4, Cyno MUC17 ECD3577-his (His-tagged …); experiment: ELISA on coated monkey MUC17 ECD3577-His, OD450
Procedure: as §5

[21] = molecular target: T4, Cyno MUC17 ECD3577-his (His-tagged …); experiment: ELISA on coated monkey MUC17 ECD3577-His, OD450
Procedure: as §5

[22] = molecular target: T4, Cyno MUC17 ECD3577-his (His-tagged …); experiment: phage ELISA and FACS screening

B1: 2D11-hIgG1 (antibody, V domains shown)
VH: QVQLVESGGGVVQPGRSLRLSCAASGFTFSNHGMHWVRQAPGKCLEWVAGIWSDASNKYYAEAVKGRFTISRDTSKNTLYLQMNSLRAEDTAVYYCARATYTTGWSYFDYWGQGTLVTVSS
VL: SYELTQSPSVSVSPGQTASITCSGDKLGDKYTSWYQQKPGQSPVLVIYHDRKRPSGIPERFSGSNSGNTATLTISGTQAMDEADYYCQAYDRSTAWVFGCGTKLTVLR
notes: Control antibody from WO2019133961A1, expressed as human IgG1 + kappa; also called 21D11; MUC17 control antibody
EC50 (read off the curve) [1]: ~0.07 nM
EC50 (read off the curve) [2]: ~0.1 nM
EC50 (read off the curve) [3]: ~0.05 nM
EC50 (read off the curve) [4]: ~0.1 nM
EC50 (read off the curve) [5]: ~0.1 nM
EC50 (read off the curve) [6]: ~0.1 nM
Kd [7]: 7.12 nM
koff [7]: 0.000753 s⁻¹
kon [7]: 106000 M⁻¹ s⁻¹
EC50 (read off the curve) [8]: ~0.02 nM
EC50 (read off the curve) [9]: ~0.006 nM
EC50 (read off the curve) [10]: ~0.4 nM
EC50 (read off the curve) [11]: ~0.02 nM
EC50 (read off the curve) [12]: ~0.006 nM
EC50 (read off the curve) [13]: ~0.02 nM
EC50 (read off the curve) [14]: ~0.04 nM
EC50 (read off the curve) [15]: ~0.03 nM
EC50 (read off the curve) [16]: ~0.03 nM
EC50 (read off the curve) [17]: ~0.01 nM
EC50 (read off the curve) [18]: ~0.01 nM
EC50 (read off the curve) [19]: ~0.01 nM
EC50 (read off the curve) [20]: ~0.04 nM
EC50 (read off the curve) [21]: ~0.05 nM

B2: Lab315 (VHH)
VHH: DVQLQASGGGAVQAGGSLRLSCAASGDITRRCMGWFRQAPGKEREGVAGISEDGITIYADSVKGRFTISKDNAKNSLYLQMNSLAPEDTANYSCAASILNRVGCRQLSYEYIYRGQGTQVTVSS
notes: also called Lab315 phage clone; SCR-7724
binding result [22]: binds

B3: 4C11-hIgG1 (antibody, V domains shown)
VH: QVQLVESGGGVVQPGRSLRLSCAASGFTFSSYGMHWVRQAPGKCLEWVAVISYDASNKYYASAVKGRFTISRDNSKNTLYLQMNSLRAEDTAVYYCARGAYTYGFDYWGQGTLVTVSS
VL: EIVLTQSPGTLSLSPGERATLSCRASQSVNRYLAWYQQKPGQAPRLLIYGASNRATGIPDRFTGSGSGTDFTLTISRLEPEDFAVYFCHHYGSSIFAFGCGTKVEIKR
notes: also called MUC17 control antibody
EC50 (read off the curve) [3]: ~4 nM
EC50 (read off the curve) [8]: ~0.05 nM
EC50 (read off the curve) [9]: ~0.01 nM
EC50 (read off the curve) [12]: ~0.01 nM
EC50 (read off the curve) [14]: ~0.05 nM
EC50 (read off the curve) [16]: ~0.04 nM
EC50 (read off the curve) [17]: ~0.02 nM
EC50 (read off the curve) [18]: ~0.05 nM
EC50 (read off the curve) [19]: ~0.02 nM
EC50 (read off the curve) [20]: ~0.08 nM
EC50 (read off the curve) [21]: ~0.08 nM
